In series [1] the target is T1, thrombin (alpha-thrombin) (Homo sapiens, UniProt P00734;P00734 P00734:315-363,P00734:364-622). Kind of series: filter; 10 nM thrombin.
Series [2] has as its target T1, thrombin (alpha-thrombin). Kind of series: filter; DPBS Ca2+ Mg2+, 0.1 mg/ml BSA.
The target in series [3] is T2, thrombin (endogenous, clotting assay in plasma or whole blood) (Homo sapiens, UniProt P00734;P00734 P00734:328-363,P00734:364-622). Kind of series: inhibition; PT at 10 uM.
For series [4], the target named is T2, thrombin (endogenous, clotting assay in …). Kind of series: inhibition; ACT at 10 uM.
The next series concerns the target prothrombin (Homo sapiens, UniProt P00734 P00734:44-622). Description: filter; 50 nM prothrombin. The settings on record: tags: Athens Research. The gist of the method: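 Trace 5′-³²P-labeled RNA clones incubated ±50 nM prothrombin with 0.1 mg/ml BSA in 1×DPBS (with Ca²⁺/Mg²⁺), 30 min. Bound RNA captured on nitrocellulose, free RNA on nylon; filters quantified by phosphorimaging. Single-point screen.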

In turn, TCCCGCAATCGGTACTCAGGAGGATGGTTGGGGTGGCTGAGGATCGATC (ssDNA) [AMX(395)_B5] had a binding signal in series [1] of 17.1 % bound.
Same read-out and setting: with TCCCATAGTATCGAGCCGATTGGATGGTCTGGGTGGCTGAGGATCGATC (ssDNA) [AMX(395)_F3] the figure was 6.29 % bound.
TCCCGAGCGATACTGCCTAGGTTGGGTAGGGTGGTGGCTGAGGATCGATC (ssDNA) [AMX(398)_D6 (ARC2026)] gave a Kd in series [2] of 0.29 nM.
In series [3], TCCCGAGCGATATTGTCTAGGTTGGGTAGGGTGGTGGCTGAGGATCGATC (ssDNA) [AMX(453)_F11] registered an activity of 65.8 s.
On the same count and under the same terms, the result for TCCCGAGCGATACTGTCTAGGTTGGGTAGGGTGGTGGCTGAGGATCGATC (ssDNA) [AMX(453)_F7] reads 28.6 s.
In the case of TAACTGCCTAGGTTGGGTAGGGTGGTGGCAGTTA (ssDNA) [ARC2179], the activity in series [4] was determined as 462 s.
In series [4], ACTACCTCAGGGATGGTGTGGGTGGCTGAGGTAGT (ssDNA) [ARC2176] registered an activity of 394 s.
Still for that read-out and setting: with TACCTCAGGGATGGTGTGGGTGGCTGAGGTA (ssDNA) [ARC2174] the figure was 416 s.
TCCCGAGTGTCATATCATCAGAGGTTGGAGTGGGTGGCTGAGGATCGATC (ssDNA) [AMX(395)_D5]: the binding signal in series [1] amounted to 13.4 % bound.
Take ATCCCAATGTTGAGACGAGTAGGTGTGGGTAGGGTGGCTGAGGATCGATC (ssDNA) [AMX(453)_A9]: in series [3], the activity turned out to be 29.3 s.
The molecule CTAACTGCCTAGGTTGGGTAGGGTGGTGGCAGTTAG (ssDNA) [ARC2180] registered an activity in series [4] of 516 s.
Still for that read-out and setting: the result for CCTCAGGGTTGGTGTGGTTGGCTGAGG (ssDNA) [ARC2183] reads 354 s.
On to TCCGATTGACGTGGTGGGTTACTGGTTTGGGTGGCTGAGGATCGATC (ssDNA) [AMX(398)_A1], for which, in the series with prothrombin, the binding signal came out at 18 % bound. The same molecule came in with a Kd in series [2] of 0.3 nM.
As for TCCCTGGTTTCGATCTGTTTTGGTTGGTCTGGGTGGCTGAGGATCGATC (ssDNA) [AMX(454)_B12], the activity in series [3] came to 21.9 s.
The same measure, in the same setting: the result for CCCGACTGATTCTTACCTTAGGGATGGTGTGGGTGGCTGAGGATCGATC (ssDNA) [AMX(454)_B9] reads 32 s.
In series [1], TCCCGACTTCGATTACTCAGGGGTGGCTGTGGGTGGCTGAGGATCGATC (ssDNA) [AMX(395)_E4] registered a binding signal of 24 % bound.
On to GACTACCTCAGGGATGGTGTGGGTGGCTGAGGTAGTC (ssDNA) [ARC2177], for which the activity in series [4] stood at 401 s.
TCCTGATTGATCTGAGGGGTATTGTTGGCGTGGGTGGCTGAGGATCGATC (ssDNA) [AMX(453)_C10] showed an activity in series [3] of 104 s.
In series [2], TCCCAAGATCGGTACATACAGTGGGTGGTGAGGGTGGCTGAGGATCGATC (ssDNA) [AMX(395)_D11] showed a Kd of 5.55 nM.
As to ACTAACTGCCTAGGTTGGGTAGGGTGGTGGCAGTTAGT (ssDNA) [ARC2181], in series [4], the activity was found to be 478 s.
In series [3], TCCCATGATCGTTAGATTCAGGGATGGTGTGGGTGGCTGAGGATCGATC (ssDNA) [AMX(453)_G5] came in with an activity of 29.3 s.
As for TCCCATGATCGTCAGATTCAGGGATGGTGTGGGTGGCTGAGGATCGATC (ssDNA) [AMX(395)_E8], the binding signal in series [1] came out at 21.3 % bound.
In the case of TCCCTAGATCGGGTCCTGGTAGTGTTTCTGGGTGGCTGAGGATCGATC (ssDNA) [AMX(399)_F5], in the series with prothrombin, the binding signal is 49.3 % bound. Also, in series [2], binding was characterised by a dissociation constant (Kd) of 2.35 nM.
For the molecule ACTGCCTAGGTTGGTGTGGTTGGTGGCAGT (ssDNA) [ARC2184], the activity in series [4] worked out at 368 s.
For TCCCGTAATCGAGCCTGGTATTGTTGGCCTGGGTGGCTGAGGATCGATC (ssDNA) [AMX(395)_A11], the binding signal in series [1] was determined as 35.8 % bound.
Take TCCTGAGGGATCAGGCTAGGTTGGGTAGGGTGGTGGCTGAGGATCGATC (ssDNA) [AMX(398)_C8 (ARC2027)]: in the series with prothrombin, the binding signal turned out to be 48.5 % bound. Further, binding in series [2] was characterised by a dissociation constant (Kd) of 0.42 nM.
TCCCGGGATCGAGTCCGATTAGGGATGGTGTGGGTGGCTGAGGATCGATC (ssDNA) [AMX(395)_B7] showed a Kd in series [2] of 14.5 nM.
For the molecule TCCCAATCGGTCCTGGTAATATATTGGTCGGGGTGGCTGAGGATCGATC (ssDNA) [AMX(399)_H3], the binding signal in the series with prothrombin was determined as 45.5 % bound. In series [2], this molecule displayed a Kd of 1.93 nM.
In series [1], TCCCGGTCGAGTCCTCACGAAGGGTTGGGAGGGTGGCTGAGGATCGATC (ssDNA) [AMX(395)_E7] showed a binding signal of 9.12 % bound.
The same measure, in the same setting: with TCCTATCGATACGGGGTCTTCTATTGGGTCGGGGTGGCTGAGGATCGATC (ssDNA) [AMX(395)_E2] the figure was 6.51 % bound.
In series [2], TCCCGGGTGGTTATCTTCTCAGGGATGGTGTGGGTGGCTGAGGATCGATC (ssDNA) [AMX(395)_C1] yielded a Kd of 7.48 nM.
Turning to ACCTCAGGGATGGTGTGGGTGGCTGAGGT (ssDNA) [ARC2173], the activity in series [4] was found to be 415 s.
On the same count and under the same terms, with GACTAACTGCCTAGGTTGGGTAGGGTGGTGGCAGTTAGTC (ssDNA) [ARC2182] the figure was 518 s; with AACTGCCTAGGTTGGGTAGGGTGGTGGCAGTT (ssDNA) [ARC2178], 429 s.
Consider TCCCATCGATCTGGGGTAGTTTTATTGGGTCGGGTGGCTGAGGATCGATC (ssDNA) [AMX(453)_B10], for which the activity in series [3] was 24.8 s.
In the case of TCCCGATCGCTGTCCTAGGATGGGTAGGGTGGTGGCTGAGGATCGATC (ssDNA) [AMX(399)_D2], the Kd in series [2] stood at 1.33 nM.
TCCCGAGTGATCCGGGGTGTTTTTTTGGGTTGGGTGGCTGAGGATCGATC (ssDNA) [AMX(398)_E3] yielded a binding signal in the series with prothrombin of 47.5 % bound. The Kd in series [2] came out at 0.89 nM.
As for TCCCACGGTCCTCACCTAGGATGGTTAGGGTGGTGGCTGAGGATCGATC (ssDNA) [AMX(395)_G2], the binding signal in series [1] was 33.1 % bound.
In series [1], TCCCAGAGCGGAAATCCTCAGGGGTGGGGTGGGTGGCTGAGGATCGATC (ssDNA) [AMX(395)_G11] displayed a binding signal of 21.9 % bound.
The molecule CCTCAGGGATGGTGTGGGTGGCTGAGGTTT (ssDNA) [ARC2185] registered an activity in series [4] of 384 s.
TCCCGGTAGCGATCCAGAGAGGGATGGGGTGGGTGGCTGAGGATCGATC (ssDNA) [AMX(395)_H9] registered a binding signal in series [1] of 9.61 % bound.
In series [4], CTACCTCAGGGATGGTGTGGGTGGCTGAGGTAG (ssDNA) [ARC2175] displayed an activity of 392 s.
The molecule TCCCGTTCGAGTCCTGGTGTTTTATTGGCCTGGGTGGCTGAGGATCGATC (ssDNA) [AMX(399)_D5] returned a binding signal with prothrombin of 23.8 % bound. This molecule displayed a dissociation constant (Kd) in series [2] of 2.26 nM.
In series [3], TCCCTGCTTGTCGATATTTTAGGGTTGGTGTGGGTGGCTGAGGATCGATC (ssDNA) [AMX(454)_D11] registered an activity of 43.4 s.
As for CCTCAGGGATGGTGTGGGTGGCTGAGGTTTTTT (ssDNA) [ARC2186], in series [4], the activity was 408 s.
Consider TCCCGGTCGTATTAGTGTGGGTGGTGTAGGGTGGTGGCTGAGGATCGATC (ssDNA) [AMX(395)_E11], for which the binding signal in series [1] stood at 33.7 % bound.

Usually Kd stands for the free concentration of one partner at which half of the binding sites on the other are occupied at equilibrium, for simple one-to-one binding. A higher Kd goes with weaker binding.

The record behind these values is US20090221680, “Aptamers that bind thrombin with high affinity” (published 2009).
